Experimental data: patent US20170035877A1 (published 2017)

Target: soluble four-domain CD4 (UniProt P01730 26-390)
Assay: ITC

B1: 16055 SOSIP.663 trimer, negatively selected (flow-through of the GE136 column) (other)
chain 1: not shown
chain 2: AVGLGAVIFGFLGAAGSTMGAASITLTVQARQLLSGIVQQQSNLLKAPEAQQHLLQLTVWGIKQLQTRVLAIERYLKDQQLLGIWGCSGKLICCTAVPWNSSWSNKSHDEIWGNMTWMQWDREISNYTNTIYRLLEDSQNQQEQNEKDLLAL
B1 gave a Kd of 6 nM.
